In patent publication US8518399B2, “Methods of treating infections originating from viruses in the herpesviridae family” (Tamir Biotechnology, Inc., priority 2010, dated 2013):

Assays:
human cytomegalovirus = assay: Antiviral activity against human cytomegalovirus, CPE-inhibition assay in primary HFF cells with real time PCR readout; format: cell-based; settings: primary human foreskin fibroblast (HFF) cells; SI greater than 1 = active; FIGS. 1 and 2
Protocol: (§1) To evaluate the activity of the three tested RNases against human herpesviridae infections, the following quantitative PCR assay was used:
(§2) Solutions of the tested RNases were prepared in cell culture medium without use of dimethyl sulfoxide (“DMSO”). DMSO is unnecessary because the tested RNases are water-soluble.
Antiviral activity against herpes simplex virus-1, herpes simplex virus-2, and human cytomegalovirus was evaluated by cytopathic effect inhibition (“CPE-inhibition”) assays in primary human foreskin fibroblast (HFF) cells. Primary HFF cells were counted and 2.5×10^4 cells per well were seeded into 96-well plates in 100 it of minimal essential medium supplemented with 10% fetal bovine serum (“FBS”). The cells were then incubated for 24 hours at 37° C. in a 5% CO2 humidified incubator. Solutions of the tested RNases were added to triplicate wells to yield a final concentration of 10 μM, and diluted to yield concentrations of 2, 0.4, 0.08, 0.016, and 0.0032 μM. The plates were then incubated for 1 h and 100 μl of a virus suspension was added. […] Total DNA from the cultures was harvested and viral genome copy number was determined by real time PCR assays.
(§3) For all the assays, cytotoxicity was evaluated in the same cell line used to evaluate antiviral activity and was assessed by CellTiter-Glo assays.

roseolovirus-6A = assay: Antiviral activity against roseolovirus-6A in HSB-2 cells, viral DNA by real time PCR; format: cell-based, human; settings: SI greater than 1 = active, FIGS. 1 and 2
Protocol: as §1, §2
Antiviral activity against roseolovirus-6B was evaluated in Molt-3 cells. The tested RNases were diluted using methods used for the CPE-inhibition assay in RPMI 1640 medium (Roswell Park Memorial Institute) supplemented with 10% FBS, L-glutamine, penicillin and gentamicin. 2×10^4 Molt-3 cells were added to each well, and infected cells were added to achieve the desired multiplicity of infection and incubated at 37° C. for 4 days. The accumulation of viral DNA was determined by real time PCR assays. Antiviral activity against roseolovirus-6A was evaluated by similar procedures, but using HSB-2 cells.
as §3

B1: ranpirnase (protein, UniProt P22069 1-104, looked up)
Protein P-30: QDWLTFQKKHITNTRDVDCDNIMSTNLFHCKDKNTFIYSRPEPVKAICKGIIASKNVLTTSEFYLSDCNVTSRPCKYKLKKSTNKFCVTCENQAPVHFVGVGSC
notes: An RNase, disclosed and claimed in U.S. Pat. No. 5,559,212
- activity against human cytomegalovirus (judged by SI = CC50/EC50) (human cytomegalovirus): extraordinarily active
- activity against roseolovirus-6A (judged by SI = CC50/EC50) (roseolovirus-6A): entirely inactive
